Results published in US5679542.
Where “and” joins values, the source holds several entries; their conditions need not be identical. Equal values may be shown once.

What was measured:
[1] = biological target: platelet glycoprotein GPIb-IX complex (Homo sapiens (Human)) (UniProt P07359)
[2] = biological target: platelet glycoprotein GPIb-IX complex (Homo sapiens (Human)) (UniProt P07359); assay: inhibition of botrocetin-induced 125I-vWF binding to washed platelets (procedure of Ruggeri et al.); competitor vWF

Substance	botrocetin/ristocetin-induced agglutination inhibition assay using PRP [1]	concentration that inhibited the binding of vWF to platelets [2]
CC, platelet antiadhesive purified from Cerastes cerastes venom	3 µg/mL and 2 µg/mL	–
CHH-B, platelet antiadhesive (GPIb inhibitor) purified from Crotalus horridus horridus venom	–	< 200 nM
purified protein from C. horridus horridus, as prepared in Example 2 (as tested in Example 6)	2 µg/mL and 3 µg/mL	–
